For data set [1], the target named is hORC1-5;hCDC6;hCDT1deltaN;hMCM2-7 (human;human;human;human) (UniProt Q13415+Q13416+Q9UBD5+O43929+O43913+Q99741+Q9H211+P49736+P25205+P33991+P33992+Q14566+P33993). Kind of data set: bead pull-down (pre-RC assay). Conditions: ATP, high-salt wash, no hORC6; CDT1 form inferred; 25 mM HEPES-KOH pH 7.5, 250 mM KGlu, 1 mM DTT, 4 mM MgOAc, 0.1% Triton X-100, 1 mM ATP or ATPgS, 30 C; high-salt wash adds 300 mM NaCl; in-solution: …; scale: fold reduction of hMCM2-7 signal vs with hORC6.

Data set [2] has as its target hORC1-5;hORC6;hCDC6;hCDT1deltaN;hMCM2-7 (human;human;human;human;human) (UniProt Q13415+Q13416+Q9UBD5+O43929+O43913+Q9Y5N6+Q99741+Q9H211+P49736+P25205+P33991+P33992+Q14566+P33993). The data set can be described thus: bead pull-down (pre-RC assay). The note with it: ATP, high-salt wash; CDT1 form inferred; 25 mM HEPES-KOH pH 7.5, 250 mM KGlu, 1 mM DTT, 4 mM MgOAc, 0.1% Triton X-100, 1 mM ATP or ATPgS, 30 C; high-salt wash adds 300 mM NaCl; in-solution: …; scale: fold higher hMCM2-7 signal than without hORC6.

Data set [3] concerns the target budding yeast MCM2-7 complex (budding yeast) (UniProt P29469). The data set can be described thus: negative-stain EM (2D class averages); eluates of pre-RC reactions with ATP washed with 300 mM NaCl (high salt); complexes on DNA.

As for “lamin B2 origin DNA for pre-RC / hOCCM (2 or 3 kbp)”, the binding signal in data set [1] and in data set [2] was 1.8 each time.
“budding yeast MCM2-7 complex, P29469 1-868; P24279 1-971; P30665 1-933; P29496 1-775; P53091 1-1017; P38132 1-845”: in data set [3], the percent of particles in double-hexamer class averages is 91%.

For the origin of these results see publication PMC11711466.
